T1: Cnd1^Ycs4 (fission yeast condensin HEAT-repeat subunit) (S. pombe, UniProt O94679 1-1158)
T1 construct: Cnd1 (Ycs4), S. pombe condensin HEAT-repeat subunit; cDNA cloned into an S. cerevisiae expression vector; source: S. cerevisiae (w303, pep4 deleted), co-overexpressed with the other four condensin subunits from GAL1-10 promoters; in cell extract, and purified as the complex (IgG-agarose, 3C protease elution, heparin, Superose 6)
T1 sequence (looked up): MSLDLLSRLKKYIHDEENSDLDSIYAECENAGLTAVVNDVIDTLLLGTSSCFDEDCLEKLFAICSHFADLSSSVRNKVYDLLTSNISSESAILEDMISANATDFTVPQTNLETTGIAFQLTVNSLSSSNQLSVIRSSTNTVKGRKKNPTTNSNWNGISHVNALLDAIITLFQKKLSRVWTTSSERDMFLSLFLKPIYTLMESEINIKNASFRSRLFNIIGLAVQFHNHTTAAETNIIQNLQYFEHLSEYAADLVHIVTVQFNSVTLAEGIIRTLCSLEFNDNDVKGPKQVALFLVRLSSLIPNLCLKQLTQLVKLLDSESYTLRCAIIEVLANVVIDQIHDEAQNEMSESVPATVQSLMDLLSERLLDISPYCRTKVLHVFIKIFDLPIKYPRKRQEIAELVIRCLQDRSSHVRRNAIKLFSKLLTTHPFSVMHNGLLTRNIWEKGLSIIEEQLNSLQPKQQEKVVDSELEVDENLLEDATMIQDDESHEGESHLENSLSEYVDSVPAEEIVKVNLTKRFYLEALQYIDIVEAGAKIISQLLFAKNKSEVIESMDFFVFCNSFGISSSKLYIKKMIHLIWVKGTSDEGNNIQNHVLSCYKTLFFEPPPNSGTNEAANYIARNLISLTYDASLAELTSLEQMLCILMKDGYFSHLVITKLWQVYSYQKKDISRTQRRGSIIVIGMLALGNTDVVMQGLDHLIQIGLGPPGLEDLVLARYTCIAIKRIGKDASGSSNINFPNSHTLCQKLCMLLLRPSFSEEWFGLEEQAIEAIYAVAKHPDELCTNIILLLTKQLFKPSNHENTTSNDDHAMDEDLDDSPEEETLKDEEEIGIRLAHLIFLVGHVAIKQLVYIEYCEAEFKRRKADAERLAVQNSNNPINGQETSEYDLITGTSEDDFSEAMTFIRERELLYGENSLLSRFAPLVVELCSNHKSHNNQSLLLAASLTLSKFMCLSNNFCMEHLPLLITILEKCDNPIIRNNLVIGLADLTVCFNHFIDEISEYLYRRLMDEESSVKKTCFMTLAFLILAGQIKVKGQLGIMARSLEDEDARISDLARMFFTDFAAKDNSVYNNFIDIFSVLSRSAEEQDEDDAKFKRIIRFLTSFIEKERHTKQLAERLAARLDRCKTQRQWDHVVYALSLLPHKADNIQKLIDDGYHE

B1: Cnd2^Brn1 (fission yeast condensin kleisin subunit) (natural protein, S. pombe, UniProt Q9Y7R3 1-742, looked up)
chain: MKRASLGGHAPVSLPSLNDDALEKKRAKENSRKQRELRRSSALHSITPRRESLNNSSPFNSSHQVPVLSNFEEWIKLATDNKINSTNTWNFALIDYFHDMSLLRDGEDINFQKASCTLDGCVKIYTSRIDSVATETGKLLSGLANDSKVLQQTEEGEDAENDDEDLQKKKERKRAQRSVKTLVKDFESIRAKKFELECSFDPLFKKMCADFDEDGAKGLLMNHLCVDQHGRIVFDSSDTVIKDLENKDVEAESQEAVVAAPIESHDTEMTNVHDNISRETLNGIYKCYFTDIDQLTICPSLQGFEFDSKGNLDVSLLKSLSDEVNMITTTSLVDNTMEKTDADAASLSSDSDGEEGHIVHALEEMAYDEENPYVDVVPKAMDESENPDFGVDTEVNMADGSTMNENYSIISTAAANGVYEYFDKSMKKNWAGPEHWRIQALRKNINNASTVFNSSNTAESSDNVSRSLSSTERKKRRELDNAIDFLQEVDVEALFTPATSSLKLPKSHWKRHNRCLLPDDYQYDSKRLLQLFLKPKMSVLPNADGEGQLQLNKALDDENDLDGIQPHGFDSDGSDNVDEGIPPYGFGDSDSPKQTPLLTPPSSSGFGDNLLLTARLAKPDMLNYAKRAKKVDVRVLKEKLWKCLDLENTIKENSINSHIEGSEMESEETNMPVKSFFSTVNQLEETYEKKELKDISTSFAFICVLHLANEHNLELTSNEDFSDVFIRPGPNLTTLEALENDV
notes: Cnd2 (Brn1), S. pombe condensin kleisin subunit; cDNA cloned into an S. cerevisiae expression vector; The 2xProtA tag was still on the chain while the complex was captured on rabbit IgG-agarose (assay a1); also called Cnd2-2xProtA; source: S. cerevisiae (w303, pep4 deleted), co-overexpressed with the other four condensin subunits from GAL1-10 promoters; in cell extract, and purified as the …

Experiments:
[1] = system: condensin pentamer;condensin pentamer (Schizosaccharomyces pombe;Schizosaccharomyces pombe); assay: second DNA capture by condensin preloaded on bead-bound DIG-5kb-DIG; details: binding buffer, pH and temperature not given in material; Mg2+ and ATP; washes at 500 mM NaCl (topological loading) or 100 mM NaCl (gripping state)
[2] = system: condensin pentamer (Schizosaccharomyces pombe); assay: condensin immunoprecipitation, 500 mM NaCl wash; details: Mg2+, ATP, binding buffer, pH and temperature not given in material, washes at 500 mM NaCl (topological loading) or 100 mM NaCl (gripping state)
[3] = target: T1, Cnd1^Ycs4 (fission yeast condensin …); assay: cross-linking; sulfo-SDA cross-link mass spectrometry (CLMS) of the purified five-subunit condensin complex with equimolar 124 bp linear dsDNA and 0.5 mM ADP·BeF3 (DNA-gripping state); CL buffer, 30°C 30 min, UV 365 nm on ice; 1% FDR at residue-pair level; details: both partners purified

Row | Molecule | binding signal (% of second dsDNA captured) [1] | binding signal (% of input DNA recovered) [2] | binding result [3]
1 | supercoiled pBlueScript KSII(+) | 10 | > 40 | 
2 | B1 |  |  | binds

Reference: article PMC10842940, “Establishment of dsDNA-dsDNA interactions by the condensin complex” (Molecular cell, 2023)
